Assay results: article PMC9482650, “Quantitative fragmentomics allow affinity mapping of interactomes” (Nature Communications, 2022)

Assays:
Test in all cases: holdup assay
Design in all cases: key: below the threshold = too weak to quantify, mostly under pKd 3.1 to 4
Conditions in all cases: plain residues with an end cap or a label only (N-terminal biotin on a linker: ado-ado)
MAGI1_1, Q96QZ7 = target: MAGI1_1, Q96QZ7
DFNB31_3, Q9P202 = target: T1, DFNB31_3, Q9P202
T1 sequence (Q9P202 811-907, limits assumed, looked up): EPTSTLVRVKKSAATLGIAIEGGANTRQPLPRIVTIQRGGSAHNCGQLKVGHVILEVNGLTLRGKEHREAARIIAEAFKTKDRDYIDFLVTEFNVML

MAST1, Q9Y2H9 = target: MAST1, Q9Y2H9
Sequence of MAST1, Q9Y2H9 (Q9Y2H9 962-1065): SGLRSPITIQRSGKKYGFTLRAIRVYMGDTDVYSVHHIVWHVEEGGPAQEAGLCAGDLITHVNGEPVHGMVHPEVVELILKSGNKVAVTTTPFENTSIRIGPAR

APBA1_1, Q02410 = target: T2, APBA1_1, Q02410
T2 sequence (Q02410 651-752, limits assumed, looked up): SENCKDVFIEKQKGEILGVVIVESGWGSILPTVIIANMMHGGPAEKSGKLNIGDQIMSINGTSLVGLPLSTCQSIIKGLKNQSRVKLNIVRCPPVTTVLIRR

PDZRN4_1, Q6ZMN7 = target: PDZRN4_1, Q6ZMN7
Sequence of PDZRN4_1, Q6ZMN7 (Q6ZMN7 213-318): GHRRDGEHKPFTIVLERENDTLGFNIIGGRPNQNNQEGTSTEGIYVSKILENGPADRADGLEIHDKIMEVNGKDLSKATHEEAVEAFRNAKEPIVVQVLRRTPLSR

FRMPD2_2, Q68DX3 = target: FRMPD2_2, Q68DX3
Sequence of FRMPD2_2, Q68DX3 (Q68DX3 944-1038): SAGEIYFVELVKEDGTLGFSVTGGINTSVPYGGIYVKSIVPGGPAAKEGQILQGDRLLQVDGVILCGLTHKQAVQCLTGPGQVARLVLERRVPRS

SHANK1, Q9Y566 = target: T3, SHANK1, Q9Y566
T3 sequence (Q9Y566 658-767, limits assumed, looked up): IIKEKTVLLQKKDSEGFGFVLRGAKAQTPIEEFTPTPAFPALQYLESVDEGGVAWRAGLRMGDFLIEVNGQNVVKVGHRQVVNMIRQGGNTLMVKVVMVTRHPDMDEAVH

DLG4_3, P78352 = target: DLG4_3, P78352
Sequence of DLG4_3, P78352 (P78352 306-403): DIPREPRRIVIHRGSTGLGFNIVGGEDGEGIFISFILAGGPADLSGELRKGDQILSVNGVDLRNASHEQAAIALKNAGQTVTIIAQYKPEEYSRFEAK

CASK, O14936 = target: CASK, O14936
Sequence of CASK, O14936 (O14936 487-570): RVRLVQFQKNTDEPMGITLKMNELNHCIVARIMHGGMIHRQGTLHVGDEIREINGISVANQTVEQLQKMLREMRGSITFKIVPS

SYNJ2BP, P57105 = target: T4, SYNJ2BP, P57105
T4 sequence (P57105 8-110, limits assumed, looked up): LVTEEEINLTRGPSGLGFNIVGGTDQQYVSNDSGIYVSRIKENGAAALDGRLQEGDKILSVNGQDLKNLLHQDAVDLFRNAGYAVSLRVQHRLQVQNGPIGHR

DFNB31_2, Q9P202 = target: T5, DFNB31_2, Q9P202
T5 sequence (Q9P202 274-371, limits assumed, looked up): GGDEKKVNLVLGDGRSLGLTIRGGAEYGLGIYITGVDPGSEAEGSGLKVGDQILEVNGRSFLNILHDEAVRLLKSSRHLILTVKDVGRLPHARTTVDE

PDZD7_3, Q9H5P4 = target: T6, PDZD7_3, Q9H5P4
T6 sequence (Q9H5P4 857-944, limits assumed, looked up): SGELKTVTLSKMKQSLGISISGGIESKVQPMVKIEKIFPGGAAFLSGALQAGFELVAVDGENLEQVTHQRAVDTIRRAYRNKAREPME

APBA2_2, Q99767 = target: T7, APBA2_2, Q99767
T7 sequence (Q99767 654-744, limits assumed, looked up): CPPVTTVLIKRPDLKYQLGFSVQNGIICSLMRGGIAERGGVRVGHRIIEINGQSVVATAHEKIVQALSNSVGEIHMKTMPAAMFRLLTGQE

Inadl_8, Q8NI35 = target: Inadl_8, Q8NI35
Sequence of Inadl_8, Q8NI35 (Q8NI35 1425-1530): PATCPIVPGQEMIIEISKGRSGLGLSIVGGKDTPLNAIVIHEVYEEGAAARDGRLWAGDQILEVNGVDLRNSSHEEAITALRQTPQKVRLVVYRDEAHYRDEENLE

GRIP2_3, Q9C0E4 = target: GRIP2_3, Q9C0E4
Sequence of GRIP2_3, Q9C0E4 (Q9C0E4 238-339): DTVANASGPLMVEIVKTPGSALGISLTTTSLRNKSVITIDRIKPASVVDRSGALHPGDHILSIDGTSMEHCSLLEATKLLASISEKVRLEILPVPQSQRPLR

PTPN13_1, Q12923 = target: T8, PTPN13_1, Q12923
T8 sequence (Q12923 1088-1188, limits assumed, looked up): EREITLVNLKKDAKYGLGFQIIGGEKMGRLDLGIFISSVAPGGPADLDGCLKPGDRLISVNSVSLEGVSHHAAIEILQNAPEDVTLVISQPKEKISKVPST

GRIP1_3, Q9Y3R0 = target: T9, GRIP1_3, Q9Y3R0
T9 sequence (Q9Y3R0 247-346, limits assumed, looked up): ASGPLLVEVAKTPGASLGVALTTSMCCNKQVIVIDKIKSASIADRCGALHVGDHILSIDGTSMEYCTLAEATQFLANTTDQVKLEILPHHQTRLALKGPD

MPDZ_12, O75970 = target: T10, MPDZ_12, O75970
T10 sequence (O75970 1857-1958, limits assumed, looked up): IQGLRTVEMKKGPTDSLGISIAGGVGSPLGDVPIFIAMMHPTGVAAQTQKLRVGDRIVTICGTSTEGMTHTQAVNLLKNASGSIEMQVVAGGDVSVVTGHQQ

GRIP1_7, Q9Y3R0 = target: T11, GRIP1_7, Q9Y3R0
T11 sequence (Q9Y3R0 999-1096, limits assumed, looked up): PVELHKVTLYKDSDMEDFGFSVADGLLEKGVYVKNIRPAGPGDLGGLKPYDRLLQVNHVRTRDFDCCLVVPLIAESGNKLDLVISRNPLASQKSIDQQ

MAGI1_2, Q96QZ7 = target: MAGI1_2, Q96QZ7
Sequence of MAGI1_2, Q96QZ7 (Q96QZ7 456-580): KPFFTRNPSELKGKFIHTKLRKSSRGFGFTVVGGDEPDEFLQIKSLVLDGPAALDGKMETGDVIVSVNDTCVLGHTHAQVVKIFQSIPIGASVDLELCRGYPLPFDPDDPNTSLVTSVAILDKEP

GOPC, Q9HD26 = target: GOPC, Q9HD26
GRID2IP_1, A4D2P6 = target: GRID2IP_1, A4D2P6
Sequence of GRID2IP_1, A4D2P6 (A4D2P6 1-87): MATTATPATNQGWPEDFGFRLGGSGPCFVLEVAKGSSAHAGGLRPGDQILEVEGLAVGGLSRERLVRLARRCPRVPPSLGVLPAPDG

NHERF2_2, Q15599 = target: NHERF2_2, Q15599
Sequence of NHERF2_2, Q15599 (Q15599 142-238): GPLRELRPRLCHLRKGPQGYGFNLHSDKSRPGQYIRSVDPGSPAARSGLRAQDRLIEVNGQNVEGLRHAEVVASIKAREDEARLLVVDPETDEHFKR

DLG4_2, P78352 = target: DLG4_2, P78352
Sequence of DLG4_2, P78352 (P78352 155-259): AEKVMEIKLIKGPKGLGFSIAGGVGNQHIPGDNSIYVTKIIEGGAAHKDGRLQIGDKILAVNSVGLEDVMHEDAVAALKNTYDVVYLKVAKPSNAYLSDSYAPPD

MPP6, Q9NZW5 = target: T12, MPP6, Q9NZW5
T12 sequence (Q9NZW5 125-219, limits assumed, looked up): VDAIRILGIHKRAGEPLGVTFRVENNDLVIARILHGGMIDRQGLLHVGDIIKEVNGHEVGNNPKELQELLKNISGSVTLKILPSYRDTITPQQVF

TJP1_3, Q07157 = target: TJP1_3, Q07157
Sequence of TJP1_3, Q07157 (Q07157 416-512): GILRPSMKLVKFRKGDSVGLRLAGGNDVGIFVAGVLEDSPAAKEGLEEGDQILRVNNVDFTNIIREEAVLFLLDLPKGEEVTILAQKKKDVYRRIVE

Sequence of MAGI1_1, Q96QZ7 (Q96QZ7 1-106): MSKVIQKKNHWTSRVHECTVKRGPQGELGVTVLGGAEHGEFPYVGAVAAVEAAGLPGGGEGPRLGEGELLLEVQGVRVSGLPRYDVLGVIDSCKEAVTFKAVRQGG

QKNRKAQEDL [CES3, Q6UWW8]
pKd (MAGI1_1, Q96QZ7): below the threshold
pKd (DFNB31_3, Q9P202): 4.05
pKd (MAST1, Q9Y2H9): below the threshold
pKd (APBA1_1, Q02410): below the threshold
pKd (PDZRN4_1, Q6ZMN7): below the threshold
pKd (FRMPD2_2, Q68DX3): below the threshold
pKd (SHANK1, Q9Y566): below the threshold
pKd (DLG4_3, P78352): below the threshold
pKd (CASK, O14936): below the threshold
pKd (SYNJ2BP, P57105): below the threshold
pKd (DFNB31_2, Q9P202): below the threshold
pKd (PDZD7_3, Q9H5P4): below the threshold
pKd (APBA2_2, Q99767): below the threshold
pKd (Inadl_8, Q8NI35): below the threshold
pKd (GRIP2_3, Q9C0E4): below the threshold
pKd (PTPN13_1, Q12923): below the threshold
pKd (GRIP1_3, Q9Y3R0): below the threshold
pKd (MPDZ_12, O75970): below the threshold
pKd (GRIP1_7, Q9Y3R0): below the threshold
pKd (MAGI1_2, Q96QZ7): below the threshold
pKd (GOPC, Q9HD26): below the threshold
pKd (GRID2IP_1, A4D2P6): below the threshold
pKd (NHERF2_2, Q15599): below the threshold
pKd (DLG4_2, P78352): below the threshold
pKd (MPP6, Q9NZW5): below the threshold
pKd (TJP1_3, Q07157): below the threshold

PKRSFIESNV [TANC1, Q9C0D5]
pKd (MAGI1_1, Q96QZ7): below the threshold
pKd (DFNB31_3, Q9P202): below the threshold
pKd (MAST1, Q9Y2H9): 4.7
pKd (APBA1_1, Q02410): below the threshold
pKd (PDZRN4_1, Q6ZMN7): 3.82
pKd (FRMPD2_2, Q68DX3): 3.8
pKd (SHANK1, Q9Y566): below the threshold
pKd (DLG4_3, P78352): 4.27
pKd (CASK, O14936): below the threshold
pKd (SYNJ2BP, P57105): 5.28
pKd (DFNB31_2, Q9P202): below the threshold
pKd (PDZD7_3, Q9H5P4): 4.12
pKd (APBA2_2, Q99767): below the threshold
pKd (Inadl_8, Q8NI35): 4.15
pKd (GRIP2_3, Q9C0E4): below the threshold
pKd (PTPN13_1, Q12923): below the threshold
pKd (GRIP1_3, Q9Y3R0): below the threshold
pKd (MPDZ_12, O75970): below the threshold
pKd (GRIP1_7, Q9Y3R0): below the threshold
pKd (MAGI1_2, Q96QZ7): 4.37
pKd (GOPC, Q9HD26): 3.85
pKd (GRID2IP_1, A4D2P6): below the threshold
pKd (NHERF2_2, Q15599): below the threshold
pKd (DLG4_2, P78352): 5.04
pKd (MPP6, Q9NZW5): 3.76
pKd (TJP1_3, Q07157): below the threshold

DDEDRLVIEI [ZNF831, Q5JPB2]
pKd (MAGI1_1, Q96QZ7): below the threshold
pKd (DFNB31_3, Q9P202): 4.12
pKd (MAST1, Q9Y2H9): below the threshold
pKd (APBA1_1, Q02410): below the threshold
pKd (PDZRN4_1, Q6ZMN7): below the threshold
pKd (FRMPD2_2, Q68DX3): below the threshold
pKd (SHANK1, Q9Y566): below the threshold
pKd (DLG4_3, P78352): below the threshold
pKd (CASK, O14936): below the threshold
pKd (SYNJ2BP, P57105): below the threshold
pKd (DFNB31_2, Q9P202): below the threshold
pKd (PDZD7_3, Q9H5P4): below the threshold
pKd (APBA2_2, Q99767): below the threshold
pKd (Inadl_8, Q8NI35): below the threshold
pKd (GRIP2_3, Q9C0E4): below the threshold
pKd (PTPN13_1, Q12923): below the threshold
pKd (GRIP1_3, Q9Y3R0): below the threshold
pKd (MPDZ_12, O75970): below the threshold
pKd (GRIP1_7, Q9Y3R0): below the threshold
pKd (MAGI1_2, Q96QZ7): below the threshold
pKd (GOPC, Q9HD26): below the threshold
pKd (GRID2IP_1, A4D2P6): below the threshold
pKd (NHERF2_2, Q15599): below the threshold
pKd (DLG4_2, P78352): below the threshold
pKd (MPP6, Q9NZW5): below the threshold
pKd (TJP1_3, Q07157): below the threshold
